Reference: article PMC4609183 (The EMBO Journal, 2015)

B1: R0RBR parkin (residues 141–465, lacking Ubl domain and linker) (domain or fragment, human, UniProt O60260 141-465, looked up)
chain: SIYNSFYVYCKGPCQRVQPGKLRVQCSTCRQATLTLTQGPSCWDDVLIPNRMSGECQSPHCPGTSAEFFFKCGAHPTSDKETSVALHLIATNSRNITCITCTDVRSPVLVFQCNSRHVICLDCFHLYCVTRLNDRQFVHDPQLGYSLPCVAGCPNSLIKELHHFRILGEEQYNRYQQYGAEECVLQMGGVLCPRPGCGAGLLPEPDQRKVTCEGGNGLGCGFAFCRECKEAYHEGECSAVFEASGTTTQAYRVDERAAEQARWEAASKETIKKTTKPCPRCHVPVEKNGGCMHMKCPQPQCRLEWCWNCGCEWNRVCMGDHWFDV

Key:
Assay in all cases: ITC; 50 μM R0RBR, full-length parkin or phosphoparkin titrated with Ub, Ubl or their variants; 25°C; 50 mM HEPES, 50 mM NaCl, 250 μM TCEP pH 7.5 or 50 mM HEPES, 150 mM NaCl, 0.5 mM TCEP pH 8.0; single-site model
Conditions in all cases: both partners purified
ubiquitin = ubiquitin (UniProt P0CG47 1-76)
phosphoubiquitin = phosphoubiquitin (UniProt P0CG47 1-76, phosphoserine at 65)
[1] = target: B1

Row | Binder | Kd (ubiquitin) [µM] | Kd (phosphoubiquitin) [µM] | Kd [1] [µM] | dH [1] [kcal/mol] | stoichiometry N [1]
1 | B1 | 67 ± 1 | 0.016 ± 0.002 | – | – | –
2 | parkin Ubl domain (domain or fragment, human, UniProt O60260 1-76, looked up) MIVFVRFNSSHGFPVEVDSDTSIFQLKEVVAKRQGVPADQLRVIFAGKELRNDWTVQNCDLDQQSIVHIVQRPWRK | – | – | 3.8 ± 1.3 | -10.5 ± 0.717 | 0.98
